Consider four substances from patent US6191256A, “Recombinant factor VIII binding peptides” (Bayer Corporation, priority 1998, dated 2001).

Test [1] deals with T1, rFVIII (Homo sapiens, UniProt P00451). In words: confirmatory binding assay in filtration plate format using 14C-rFVIII. The conditions noted are these: for 0.5M CaCl2 % total / 2% acetic acid % total / 2% acetic acid dpm / 0.5M CaCl2 dpm: 5 mg beads; for 0.5M CaCl2 dpm: 5° C.; for beads % total / beads dpm: remaining on beads after washes. The method, then:
Confirmatory binding assays were performed in a filtration plate format using individual peptide sequences synthesized directly onto the TOYOPEARL AF amino 650 M resin, at a final substitution density of 0.1 mmole/g resin. A slurry of each individual peptide sequence was prepared using deionized water. A 100 μL volume of beads (corresponding to 5 mg) was loaded into each well of the filtration plate (MULTISCREEN Assay System, Millipore, Bedford, Mass.), in triplicate for each peptide sequence. Beads were washed with 20% ethanol and incubated overnight with equilibration buffer (20 mM imidazole, 10 mM
CaCl2, 0.105 M NaCl, pH 6.9). A 100 μL aliquot of ^14 C-rFVIII diluted in neat PPF to a final concentration of 20-30 nM was loaded into each well and incubated for 1 hour at 5° C. Filtrate (unbound ^14 C-rFVIII) was collected into a microtiter plate and transferred to liquid scintillation vials for dpm counting. Beads were washed sequentially with: 100 μL of equilibration buffer for 15 minutes, 200 μL of 0.5 M CaCl2 (in equilibration buffer), 200 μL of 1.0 M CaCl2 (in equilibration buffer), and 200 uL of 2% by volume glacial acetic acid in water, for 1 hour each at 5° C. Scintillation counting on the unbound ^14 C-rFVIII (plus equilibration buffer wash), salt and acid washes, as well as on the beads was then performed and the overall mass balance calculated.
Beads presenting the appropriate peptide sequence on the surface were placed in the filtration plate wells and incubated sequentially with equilibration buffer, ^14 C-rFVIII in PPF, equilibration buffer, 0.5 M CaCl2 wash, 1.0 M CaCl2 wash and 2% acetic acid wash. After each incubation, filtrate was collected in microtiter plates, and dpm counted on each
In Table 3, the ^14 C-rFVIII was loaded at 20 nM (in PPF) and the radiolabeling yield was at 3.0×10^15 dpm/mole. In Table 4, the ^14 C-rFVIII was loaded at 30 nM (in PPF) and the radiolabeling yield was at 5.0×10^15 dpm/mole.

The target of test [2] is T1, rFVIII. In words: rFVIII activity recovery from peptide columns by chromogenic substrate assay (COATEST). The test is classed as biochemical. Here is the method: (§1) Immunoassay on rFVIII using a sandwich capture ELISA for the light chain and activity assay using a chromogenic substrate (COATEST Factor VIII kit from diaPharma, Franklin, Ohio) were performed on a BIOMEK® automated liquid handling system from Beckman Instruments (Brea, Calif.). The monoclonal antibody for rFVIII light chain (known as C7F7), the ELISA assay standard (lot A70K019), and the control for the activity assay (lot A70A001 @ 140 IU/mL) were from the Bayer Corporation (Berkeley, Calif.). The standard for the activity assay was at 11.2 IU/mL (Bayer, Clayton, N.C.), calibrated against the MEGA 1 standard, which is a working standard used by American manufacturers for measuring factor VIII activity (21).
(§2) Additional confirmatory binding assay and performance of the discovered binding peptides in terms of total rFVIII and activity recovery was performed in a column chromatographic format on a microbore HPLC. The resins were packed into 0.4×5 cm columns (Thomson, Springfield, Va.) and tested on the MICHROM HPLC system (Michrom BioResources, Auburn, Calif.). The elution program for the trials utilized the following method. The column was pre-equilibrated with equilibration buffer (as above). A 1 mL aliquot of 1:10 PPF followed by 1 mL of rFVIII (10,000 ng) in 1:10 PPF were injected and allowed sufficient time to flow through the column using equilibration buffer. The column was then washed with step elutions of 0.5 M and 1.0 M CaCl2 in equilibration buffer. The column was exposed to equilibration buffer. Remaining protein was eluted with 2% by volume glacial acetic acid in water. Columns were kept at 5° C. during the chromatographic runs. For each 1 mL injection (equilibration buffer, 1:10 PPF and 10,000 ng rFVIII in 1:10 PPF), the chromatographic cycle was run for 45 minutes (injection, flow through, 0.5 M CaCl2, 1.0 M CaCl2, equilibration buffer, 2% acetic acid, equilibration buffer).
(§3) A Gilson FC204 fraction collector at the HPLC outlet collected individual eluates for further analysis. Each collection tube had 100 μL hSA added to it to stabilize the rFVIII. Fractions collected from the 2% acetic acid eluates were neutralized with 2 M Tris, pH 10.5 to bring the pH to neutrality. The fractions were analyzed for total protein by the integration of the absorbance at 280 nm, for rFVIII by immunoassay (sandwich capture ELISA), and for rFVIII activity by a chromogenic substrate assay.
Tables 7 and 8 list the sequences for which activity recovery was determined by a chromogenic substrate assay (COASTEST kit, diaPharma, Franklin, Ohio). Chromatographc conditions are the same as described above for the results from Tables 5 and 6. It can be

Test [3] deals with T1, rFVIII. In words: column format binding assay, rFVIII mass per fraction by sandwich capture ELISA for the light chain. The following applies: for Flow through ng: 10,000 ng rFVIII in 1:10 PPF injected, 5° C.; for ELISA results % total: Table 9, 0.5M CaCl2 fraction. Here is the method: as §1, §2, §3
Tables 5 and 6 present the results from the additional confirmatory binding assays using the column format. The chromatography method was run by injecting the samples at a flow rate of 865 μL/min (413 cm/hr). In order to provide a 10 minute residence time of sample in the column the flow was decreased to 17 μL/min (10 cm/hr) upon injection.
Following the incubation, the flow was set at 865 μL/min (413 cm/hr) for the step clutions of 0.5 M CaCl2, 1.0 M CaCl2, and 2% acetic acid. Results are expressed in terms of the total mass of rFVIII in each fraction, as determined by the sandwich capture ELISA assay for the rFVIII light chain. […] A control using a non-binding peptide sequence (IGF) is also shown for comparison--in this case, 95% of the rFVIII loaded to the column was collected in the flow through fraction. Additional controls with no
On the technique in general: ELISA stands for enzyme-linked immunosorbent assay.

Setting [4] is: Table 4, 14C-rFVIII 30 nM in PPF.
Setting [5] is: Table 3, 14C-rFVIII 20 nM in PPF.
[6] abbreviates: Table 3, 14C-rFVIII 20 nM in PPF, 3.0 × 10^15 DPM/mole.

T1 sequence (P00451 20-2351): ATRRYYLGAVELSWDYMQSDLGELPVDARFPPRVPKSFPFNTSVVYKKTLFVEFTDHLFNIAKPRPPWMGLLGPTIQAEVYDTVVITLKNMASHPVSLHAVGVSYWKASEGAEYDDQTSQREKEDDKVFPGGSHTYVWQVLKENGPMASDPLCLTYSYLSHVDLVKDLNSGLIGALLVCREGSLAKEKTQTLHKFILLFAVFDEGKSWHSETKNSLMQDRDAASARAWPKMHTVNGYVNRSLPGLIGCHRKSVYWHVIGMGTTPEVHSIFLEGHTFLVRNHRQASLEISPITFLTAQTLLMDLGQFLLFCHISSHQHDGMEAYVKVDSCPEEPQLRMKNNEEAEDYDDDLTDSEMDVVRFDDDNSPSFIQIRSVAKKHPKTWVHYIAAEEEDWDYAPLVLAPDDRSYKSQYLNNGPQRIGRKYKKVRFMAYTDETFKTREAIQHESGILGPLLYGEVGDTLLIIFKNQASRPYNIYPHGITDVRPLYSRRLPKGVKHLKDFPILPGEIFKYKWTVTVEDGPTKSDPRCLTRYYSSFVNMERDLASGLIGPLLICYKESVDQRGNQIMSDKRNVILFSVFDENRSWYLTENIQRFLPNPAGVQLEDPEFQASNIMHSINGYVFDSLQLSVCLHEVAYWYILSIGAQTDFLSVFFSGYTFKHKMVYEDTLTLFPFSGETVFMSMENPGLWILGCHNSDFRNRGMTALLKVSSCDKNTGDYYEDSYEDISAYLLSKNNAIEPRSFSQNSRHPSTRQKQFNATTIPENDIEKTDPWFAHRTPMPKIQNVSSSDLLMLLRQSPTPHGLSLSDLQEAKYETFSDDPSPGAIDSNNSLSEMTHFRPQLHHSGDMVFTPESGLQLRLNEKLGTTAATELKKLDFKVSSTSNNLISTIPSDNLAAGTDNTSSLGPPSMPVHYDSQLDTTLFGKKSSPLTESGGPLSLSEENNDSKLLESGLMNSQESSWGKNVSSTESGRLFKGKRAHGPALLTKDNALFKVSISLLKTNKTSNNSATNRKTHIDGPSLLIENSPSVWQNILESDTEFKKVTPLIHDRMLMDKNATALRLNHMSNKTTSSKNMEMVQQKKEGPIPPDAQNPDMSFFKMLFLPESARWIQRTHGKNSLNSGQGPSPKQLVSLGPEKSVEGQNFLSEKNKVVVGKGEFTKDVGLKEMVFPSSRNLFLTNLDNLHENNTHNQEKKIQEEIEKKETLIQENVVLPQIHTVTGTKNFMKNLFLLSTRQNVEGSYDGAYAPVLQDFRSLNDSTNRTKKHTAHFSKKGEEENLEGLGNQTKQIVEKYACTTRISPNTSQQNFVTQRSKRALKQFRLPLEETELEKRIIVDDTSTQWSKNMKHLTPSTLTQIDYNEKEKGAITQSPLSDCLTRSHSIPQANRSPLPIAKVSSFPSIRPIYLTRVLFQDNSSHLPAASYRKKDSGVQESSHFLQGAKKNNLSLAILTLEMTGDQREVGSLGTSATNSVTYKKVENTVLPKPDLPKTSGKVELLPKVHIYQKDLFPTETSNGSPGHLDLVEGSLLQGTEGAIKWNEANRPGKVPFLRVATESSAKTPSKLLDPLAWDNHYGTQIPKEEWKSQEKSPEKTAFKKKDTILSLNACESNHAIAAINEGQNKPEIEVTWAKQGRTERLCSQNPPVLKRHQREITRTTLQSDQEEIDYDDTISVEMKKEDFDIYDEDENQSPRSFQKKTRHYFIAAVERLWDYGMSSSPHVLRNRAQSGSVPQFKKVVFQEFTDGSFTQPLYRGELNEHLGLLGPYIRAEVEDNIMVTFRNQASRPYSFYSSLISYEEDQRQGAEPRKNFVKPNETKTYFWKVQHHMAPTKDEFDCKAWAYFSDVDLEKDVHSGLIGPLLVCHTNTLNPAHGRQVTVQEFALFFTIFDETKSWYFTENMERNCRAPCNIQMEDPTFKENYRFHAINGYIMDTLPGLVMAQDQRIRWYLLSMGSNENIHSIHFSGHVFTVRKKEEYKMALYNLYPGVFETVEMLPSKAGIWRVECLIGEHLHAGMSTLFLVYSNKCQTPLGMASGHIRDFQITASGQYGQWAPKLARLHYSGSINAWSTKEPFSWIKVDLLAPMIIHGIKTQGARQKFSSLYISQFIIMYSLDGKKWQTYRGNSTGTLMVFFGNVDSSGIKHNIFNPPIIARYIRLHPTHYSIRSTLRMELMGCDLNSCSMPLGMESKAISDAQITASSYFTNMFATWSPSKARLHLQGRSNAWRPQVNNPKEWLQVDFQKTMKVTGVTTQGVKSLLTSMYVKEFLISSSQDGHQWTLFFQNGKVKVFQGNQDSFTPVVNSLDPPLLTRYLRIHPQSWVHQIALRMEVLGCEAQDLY
T1 sequence (P00451 1668-2351 limits assumed): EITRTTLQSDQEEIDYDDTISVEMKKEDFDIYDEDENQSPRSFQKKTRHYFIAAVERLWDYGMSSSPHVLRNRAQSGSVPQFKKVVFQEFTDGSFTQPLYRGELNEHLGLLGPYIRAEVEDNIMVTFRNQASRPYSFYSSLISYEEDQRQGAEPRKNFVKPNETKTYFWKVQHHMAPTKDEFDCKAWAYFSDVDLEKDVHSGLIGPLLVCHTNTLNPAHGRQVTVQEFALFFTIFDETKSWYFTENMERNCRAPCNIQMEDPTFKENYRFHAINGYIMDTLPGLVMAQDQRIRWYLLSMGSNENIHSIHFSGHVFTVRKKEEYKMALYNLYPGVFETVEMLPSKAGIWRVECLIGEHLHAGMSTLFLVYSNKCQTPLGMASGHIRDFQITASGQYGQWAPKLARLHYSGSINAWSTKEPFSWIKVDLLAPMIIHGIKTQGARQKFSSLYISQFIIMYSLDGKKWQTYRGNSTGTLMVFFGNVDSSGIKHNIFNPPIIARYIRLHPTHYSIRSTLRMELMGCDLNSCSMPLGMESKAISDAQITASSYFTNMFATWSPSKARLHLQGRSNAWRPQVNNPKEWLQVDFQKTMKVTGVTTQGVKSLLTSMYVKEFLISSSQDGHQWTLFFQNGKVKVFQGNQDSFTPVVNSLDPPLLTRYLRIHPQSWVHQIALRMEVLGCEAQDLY

In test [1] (Table 4, 14C-rFVIII 30 nM), 10 (AFVRSL) [compound 10] showed a Total dpm of 3764 dpm, a beads % total of 2% and a beads dpm of 85 dpm. Also, in test [1] (setting [4]), the “0.5M CaCl2 % total” value was 93%, the “2% acetic acid % total” value amounted to 5% and the “2% acetic acid dpm” value is on record as 188 dpm. Besides, the “0.5M CaCl2 dpm” value in test [1] (Table 4, 14C-rFVIII 30 nM in PPF, 5.0 × 10^15 dpm/mole) was 3491 dpm. In addition, in test [2] (Table 8), the “0.5M CaCl2 IU” value turned out to be 53.1 IU, the “2% acetic acid % total” value is recorded as 0%, the “2% acetic acid IU” value worked out at 0.1 IU and the “Flow through % total” value was 0%. Moreover, in test [2] (Table 8), the “Total IU” value is 54.3 IU. Also, the “0.5M CaCl2 % total” value in test [2] (Table 8, activity recovery) was found to be 98%. Besides, the “Flow through IU” value in test [2] (Table 8, rFVIII activity in fraction) is on record as 0.0 IU. The “Activity results % total” value in test [2] (Table 9, 0.5M CaCl2 fraction) is reported as 98%. Besides, in test [3] (Table 6), the “0.5M CaCl2 ng” value was 11023 ng, the “0.5M CaCl2 % total” value was 98%, the “2% acetic acid % total” value is 1% and the “2% acetic acid ng” value is recorded as 135 ng. In addition, in test [3] (Table 6), the “Flow through % total” value worked out at 0%, the Total ng was found to be 11272 ng and the Flow through ng is recorded as 0 ng. Also, the “ELISA results % total” value in test [3] was 98%.
IGF [reference compound]: in test [1] (Table 3, 14C-rFVIII 20 nM), the Total dpm was determined as 274 dpm, the beads % total was 5% and the beads dpm stood at 14 dpm. Also, in test [1] (setting [5]), the “0.5M CaCl2 % total” value is 80%, the “2% acetic acid % total” value was 15% and the “2% acetic acid dpm” value came out at 41 dpm. Besides, the “0.5M CaCl2 dpm” value in test [1] (setting [6]) is 219 dpm. The “binding of rFVIII in words” value in test [1] (plate format) is “non binder”. In test [3] (Table 5), the “0.5M CaCl2 ng” value stood at 201 ng, the “0.5M CaCl2 % total” value is recorded as 4%, the “2% acetic acid % total” value was 0% and the “2% acetic acid ng” value was found to be 10 ng. Also, in test [3] (Table 5), the “Flow through % total” value is given as 95%, the Total ng turned out to be 4962 ng and the Flow through ng was 4719 ng.
In test [1] (Table 3, 14C-rFVIII 20 nM), 3 (YVQGLW) [compound 3] showed a Total dpm of 2020 dpm, a beads % total of 7% and a beads dpm of 140 dpm. In test [1] (setting [5]), the “0.5M CaCl2 % total” value turned out to be 74%, the “2% acetic acid % total” value turned out to be 19% and the “2% acetic acid dpm” value turned out to be 379 dpm. In test [1] (setting [6]), the “0.5M CaCl2 dpm” value was determined as 1502 dpm.
In test [1] (Table 3, 14C-rFVIII 20 nM), 8 (RPRW) [compound 8] had a Total dpm of 4098 dpm, a beads % total of 4% and a beads dpm of 178 dpm. Moreover, in test [1] (setting [5]), the “0.5M CaCl2 % total” value worked out at 86%, the “2% acetic acid % total” value is 9% and the “2% acetic acid dpm” value is given as 377 dpm. Besides, in test [1] (setting [6]), the “0.5M CaCl2 dpm” value is 3543 dpm. Further, in test [3] (Table 5), the “0.5M CaCl2 ng” value stood at 5449 ng, the “0.5M CaCl2 % total” value was determined as 97%, the “2% acetic acid % total” value came out at 0% and the “2% acetic acid ng” value is 10 ng. For the same substance, in test [3] (Table 5), the “Flow through % total” value was found to be 2%, the Total ng was determined as 5623 ng and the Flow through ng worked out at 122 ng. For the same substance, in test [3], the “ELISA results % total” value was 97%.
